Laboratory results: patent publication US20260242478A1 (published 2026)
Where no end group is shown, it is not given here.

What was measured:
[1] = biological target: T1, Anti-PSMA Fab (SEQ ID NOs: 19, 20); test: phage binding ELISA on plate-captured PSMA Fab, wells pre-incubated with PSMA antigen as competitor
T1 construct: Biotinylated and captured on neutravidin coated plates in the phage ELISA; also called 006 PSMA Fab
Experimental: (§1) Clonal phage were harvested as crude supernatants and screened via standard ELISAs. […] Prior to the addition of clonal phage. wells were incubated with blocking buffer and PSMA antigen or blocking buffer alone. Without washing or aspirating, clonal phage supernatants were then added to the wells and incubated for a short time. Wells were then washed followed by detection of bound phage using a horse radish conjugated anti-M13 antibody.

[2] = biological target: T1, Anti-PSMA Fab (SEQ ID NOs: 19, 20); test: phage binding ELISA, clonal phage on plate-captured biotinylated PSMA Fab
Experimental: as §1

[3] = biological target: T2, Anti-PSMA Fab (SEQ ID NOs: 19, 20); test: phage ELISA; PSMA Fab on plate pre-incubated with PSMA antigen as competitor, anti-M13-HRP detection;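 note: clonal phage from crude supernatants added without washing to wells preblocked with or without PSMA antigen, washed, bound phage read out by ELISA with HRP-linked anti-M13 antibody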
T2 construct: Biotinylated and captured on neutravidin coated plates in the phage ELISA; also called 006 PSMA Fab
Experimental: as §1

[4] = biological target: T2, Anti-PSMA Fab (SEQ ID NOs: 19, 20); test: phage ELISA; biotinylated PSMA Fab on neutravidin plate, bound phage detected with anti-M13-HRP;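 note: crude clonal phage supernatants added, without a wash, to wells pretreated with PSMA antigen in blocking buffer or with blocking buffer only, then briefly incubated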
Experimental: as §1

Binder | Anti-PSMA Fab signal in the presence of PSMA [1] | Anti-PSMA Fab (SEQ ID NOs: 19, 20) signal [2] | Phage binding ELISA, Anti-PSMA Fab signal in the presence of PSMA [3] | Phage binding ELISA, Anti-PSMA Fab signal [4]
LSKWCIPEWMCAVM (cysteine pairing not given here; also: pIII fusion on bacteriophage (not given here)) [Phage-2231] | 0.0848 | 1.57 |  | 
SELWCIPPWMCNFL [Phage-2227] | 0.0684 | 1.57 |  | 
TEKWCIPQWMCEAT (cysteine pairing not given here; also: displayed on phage, fused to pIII, Peptide-180 library clone, tested as clonal phage (peptide fused to the pIII filament of the bacteriophage)) [Phage-2222] | 0.0783 | 1.58 |  | 
LFKVCTPSWMCSGF [Phage-2225] | 0.0813 | 1.58 |  | 
EPKWCTPEWMCLNL (Tested as clonal phage supernatant, with the peptide fused to pIII of the bacteriophage) [Phage-2220] |  |  | 0.0915 | 1.58
AIKWCTPPWMCDWH [Phage-2224] | 0.131 | 1.58 |  | 
FLKWCTPEWMCSDV [Phage-2223] | 0.128 | 1.58 |  | 
FNKWCVPAWMCSDM [Phage-2235] | 0.0946 | 1.56 |  | 
VSAWCIPPWMCGTN [Phage-2237] | 0.0801 | 1.56 |  | 
QLNWCRPAWMCEGF [Phage-2232] | 0.128 | 1.57 |  | 
LLKWCTPPWMCELH [Phage-2229] | 0.0932 | 1.57 |  | 
GHQWCIPQWMCVGL (Tested as clonal phage supernatant, with the peptide fused to pIII of the bacteriophage) [Phage-2221] |  |  | 0.0809 | 1.58
SENWCIPAWMCSGF (Tested as clonal phage supernatant, with the peptide fused to pIII of the bacteriophage) [Phage-2219] |  |  | 0.111 | 1.59
TDMWCIPPWMCERI [Phage-2230] | 0.0846 | 1.57 |  | 
EIQWCTPSWMCPWL [Phage-2233] | 0.0668 | 1.57 |  | 
PRKWCIPAWMCEII [Phage-2236] | 0.0733 | 1.56 |  | 
LVKWCIPQWMCEQA [Phage-2228] | 0.0712 | 1.57 |  | 
MPNWCTPTWMCQGF [Phage-2234] | 0.0682 | 1.57 |  | 
LAYWCTPAWMCEGF [Phage-2226] | 0.112 | 1.57 |  | 
